A short description of the data set: protein stability index of a GFP-peptide fusion (GPS, HEK-293T) (PSI 1-6); higher = more stable.
Setting [1] is: treatment: DMSO, c terminus: a fixed tail appended.
Setting [2] is: treatment: MLN4924 1 uM, 8 h, c terminus: a fixed tail appended.
The mark [3] stands for this setting: treatment: DMSO, c terminus: native.
Where [4] appears, read: treatment: MLN4924 1 uM, 8 h, c terminus: native.

± gives the standard deviation.
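Further: 24-mer peptide tiles fused after GFP, lentivirally expressed, FACS-sorted into six equal bins by GFP/DsRed ratio, decoded by Illumina sequencing, PSI is the read-weighted mean bin number.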

In the case of DRHGVYGLQRNLLVENIIDIYKQE [TRIM63], the protein stability index was found to be 3.2 ± 0.32 under setting [1] and 3.39 ± 0.24 under setting [2].

For the sequence IVSQKQMSDRRENDMSPSNNVVPI [RAB11A], the protein stability index stood at 4.34 ± 0.13 under setting [1] and 4.54 ± 0.14 under setting [2].

As to PPCAWACPVPAHRRGSWRLPYTDG [CTBP1-DT], the protein stability index is, setting by setting: under setting [1], 2.92 ± 0.23; under setting [2], 2.93 ± 0.17.

As for REVFNEIYPVWTYSYLVLLFPVFL [SLC19A2], the protein stability index reads like this: under setting [1], 2.71 ± 0.61; under setting [2], 2.62 ± 0.21.

As for YGVKSPLSLIARFSPIAIDGMSGL [ELAVL3], the protein stability index reads like this: under setting [1], 2.41 ± 0.091; under setting [2], 2.35 ± 0.33.

FSHTLVSLSLFGCTNIFYEEENPG [ZER1] showed a protein stability index under setting [1] of 2.65 ± 0.12 and a protein stability index under setting [2] of 2.29 ± 0.029.

Take LEHRLNEMERTQAQLRDAVQSLQL [RASAL3]: the protein stability index runs as follows: under setting [1], 4.16 ± 0.51; under setting [2], 4.22 ± 0.19.

VDITPYLDQLDESLRDKVLQLQKG [INTS3]: the protein stability index came out at 3.79 ± 0.071 under setting [1] and 4.06 ± 0.1 under setting [2].

KPLYVAFSFMYILVGLTVIGAFLN [KCNK9]: the protein stability index is, setting by setting: under setting [1], 2.79 ± 0.67; under setting [2], 2.97 ± 0.62.

For GLHLTDPSQRLVQNCLWTLRNLSD [CTNNB1], the protein stability index by setting is: under setting [1], 2.29 ± 0.31; under setting [2], 2.45 ± 0.27.

On to ACTLTVFPPEETTPSPSRESPLSA [KLHL13], for which the protein stability index was determined as 4.35 ± 0.32 under setting [1] and 4.45 ± 0.15 under setting [2].

Take RAPEVLLQSTYATPVDMWSVGCIF [CDK4]: the protein stability index under setting [1] turned out to be 2.7 ± 0.28 and the protein stability index under setting [2] is 2.35 ± 0.34.

With TIIFTAAREGRETLKCLSHHVADA [TOR1AIP2], the protein stability index reads like this: under setting [1], 2.42 ± 0.13; under setting [2], 2.62 ± 0.2.

Regarding FSVLEGEKNNHRAKDLRAPPEQGK [SOAT1], the protein stability index by setting is: under setting [1], 5.08 ± 0.26; under setting [2], 4.92 ± 0.18.

For the sequence PIDFEESRFYEIHARARDQGQPAM [PCDHGC5], the protein stability index worked out at 4.3 ± 0.2 under setting [1] and 4.38 ± 0.21 under setting [2].

As for LLAKNSKPIHTTILNPHVHVIGED [CAMK2B], the protein stability index runs as follows: under setting [1], 3.2 ± 0.14; under setting [2], 3.35 ± 0.22.

The sequence QFTMGGPAISMASPMSIPTNTMHY [CARM1] came in with a protein stability index under setting [1] of 2.54 ± 0.21 and a protein stability index under setting [2] of 2.68 ± 0.18.

Take LAQDWERCNTTCGRGVKKRLVLCM [ADAMTSL2]: the protein stability index runs as follows: under setting [1], 1.56 ± 0.33; under setting [2], 1.79 ± 0.19.

As to PLLRWVLTLSFLVATVAVGLYAM [HMOX1], the protein stability index was 2.86 ± 0.15 under setting [3] and 2.57 ± 0.31 under setting [4].

AIHVLGPIDFEESRFYEIHARARD [PCDHGC5]: the protein stability index amounted to 2.64 ± 0.45 under setting [1] and 3.01 ± 0.095 under setting [2].

In the case of LVPILIEAARNGKMKFVIGNGKNL [NSDHL], the protein stability index is, setting by setting: under setting [1], 2.52 ± 0.3; under setting [2], 2.36 ± 0.28.

Take ELRDLQVSVESQQVQQVEVEATVK [PRPH]: the protein stability index reads like this: under setting [1], 4.88 ± 0.2; under setting [2], 4.96 ± 0.14.

VKLMMSTLPKSLSLPTTAPSNSSS [MYBL2]: the protein stability index is, setting by setting: under setting [1], 3.24 ± 0.18; under setting [2], 3.33 ± 0.24.

In the case of TLVGNVAQDLGLKMTDLLSRRLQL [PCDHGC5], the protein stability index runs as follows: under setting [1], 2.58 ± 0.66; under setting [2], 2.6 ± 0.57.

On to LPVDDDSDLNVVASFDRRGEYIYT [RBBP5], for which the protein stability index by setting is: under setting [1], 3.41 ± 0.25; under setting [2], 3.7 ± 0.28.

As to GKEQSRRDDLEALGHMFMYFLRGS [CSNK1G3], the protein stability index turned out to be 2.38 ± 0.34 under setting [1] and 2.29 ± 0.45 under setting [2].

Take VVAVHVVLALFVYVAWNEGSRQWR [VMA21]: the protein stability index under setting [1] came out at 2.84 ± 0.3 and the protein stability index under setting [2] was determined as 2.88 ± 0.16.

On to AEMFRRKPLFCGNSEADQLGKIFD [CDK4], for which the protein stability index runs as follows: under setting [1], 2.98 ± 0.17; under setting [2], 3.06 ± 0.2.

Consider AGEPGHSPADYLRFQDLVLRMLEY [DYRK1B], for which the protein stability index came out at 2.27 ± 0.38 under setting [1] and 2.33 ± 0.22 under setting [2].

Take IVAVLCYINLLNYMDRFTVAGVLP [SPNS1]: the protein stability index reads like this: under setting [1], 3.23 ± 0.3; under setting [2], 3.45 ± 0.14.

As to KNWVKELRQHGPPNIVVAIAGNKC [RAB22A], the protein stability index reads like this: under setting [1], 2.29 ± 0.23; under setting [2], 2.47 ± 0.21.

TYNTKVYKMFASRRKQRYWPFSMD [LOXL2]: the protein stability index was determined as 2.32 ± 0.51 under setting [1] and 1.89 ± 0.15 under setting [2].

As for DCLEGKKSKHAPRGTHLWEFIRDI [ELF3], the protein stability index worked out at 2.66 ± 0.2 under setting [1] and 2.66 ± 0.39 under setting [2].

On to VDREKGLSAEPGWQAKREEEEEEE [CHGA], for which the protein stability index was determined as 5.36 ± 0.48 under setting [1] and 5.7 ± 0.18 under setting [2].

Take VEATVKPELTAALRDIRAQYESIA [PRPH]: the protein stability index reads like this: under setting [1], 3.48 ± 0.16; under setting [2], 3.4 ± 0.22.

For the sequence TEEDDGFVDILESDLKDDDAVPPG [CDC25B], the protein stability index runs as follows: under setting [1], 5.46 ± 0.27; under setting [2], 5.4 ± 0.12.

SLLDELLEVDHIRTIYHMFIALLI [SOAT1]: the protein stability index is 2.01 ± 0.27 under setting [1] and 2.11 ± 0.56 under setting [2].

Sequence RSGIQFGSWGSFQLPGLLNFGEFK [CLCN6] had a protein stability index under setting [1] of 2.29 ± 0.26 and a protein stability index under setting [2] of 2.4 ± 0.3.

DGAGKTPTLGGGFHVNLGKESRAQ [BRF1]: the protein stability index turned out to be 4.63 ± 0.14 under setting [1] and 4.77 ± 0.34 under setting [2].

Take ENLKQQRSRREQFSRAPVSALPLA [STX5]: the protein stability index is 3.74 ± 0.37 under setting [1] and 3.75 ± 0.17 under setting [2].

The sequence PMKSAPVMLTLSDSKHVVLPVDDD [RBBP5] gave a protein stability index under setting [1] of 5.08 ± 0.12 and a protein stability index under setting [2] of 5.07 ± 0.08.

Take TPVVTESTATSITLTWDSGNPEPV [PTPRD]: the protein stability index by setting is: under setting [1], 4.21 ± 0.057; under setting [2], 4.16 ± 0.33.

On to TRRHPGGSRVISHYAGQDATDPFV [FADS1], for which the protein stability index by setting is: under setting [1], 3.7 ± 0.33; under setting [2], 3.86 ± 0.089.

Regarding EPEKLYAMPDPAGPDGHLPAVATL [ESRRA], the protein stability index reads like this: under setting [1], 4.65 ± 0.27; under setting [2], 4.69 ± 0.23.

For the sequence MTPQLFINYKLKSVAHLPWRMLTY [CLPTM1], the protein stability index reads like this: under setting [1], 2.57 ± 0.71; under setting [2], 2.45 ± 0.56.

Regarding LIDVCKYLGSLQYRVWKKMLASVE [TRIM35], the protein stability index reads like this: under setting [1], 2.75 ± 0.43; under setting [2], 2.25 ± 0.33.

For TIGVEFATRSIQVDGKTIKAQIWD [RAB11A], the protein stability index is 3.04 ± 0.2 under setting [1] and 3.08 ± 0.32 under setting [2].

LLAGGEKATMQNLNDRLASYLDKV [KRT17] registered a protein stability index under setting [1] of 2.84 ± 0.17 and a protein stability index under setting [2] of 3.08 ± 0.31.

As to ELKKMVQQSDLGQYVTFLRSFSDK [ALG2], the protein stability index runs as follows: under setting [1], 2.21 ± 0.29; under setting [2], 2.53 ± 0.42.

On to QYHHSKIRNRGYNLIYRSTRHLKR [TMEM192], for which the protein stability index runs as follows: under setting [1], 3.07 ± 0.25; under setting [2], 2.98 ± 0.091.

As to WQPAVPLMHMLHLSGALDFPRQS [SPATS1], the protein stability index turned out to be 2.9 ± 0.38 under setting [3] and 2.73 ± 0.48 under setting [4].

Take VAGGVAVAAIALILGVAFLVRKK [CEND1]: the protein stability index is, setting by setting: under setting [3], 4.02 ± 0.29; under setting [4], 4.16 ± 0.097.

For the sequence HICTNYNSVCSKFRKEIKSKSADN [RHOBTB1], the protein stability index was 3.37 ± 0.21 under setting [1] and 3.54 ± 0.15 under setting [2].

On to EKEEDHAPEFIKVRENLRRIATLT [FAM107A], for which the protein stability index reads like this: under setting [1], 2.58 ± 0.56; under setting [2], 2.81 ± 0.6.

For the sequence VRRGHSHLAPSEAKAADSPTRNDL, the protein stability index is, setting by setting: under setting [1], 4.96 ± 0.16; under setting [2], 4.9 ± 0.2.

In the case of SPPLHANTSLHVFVLDENDNAPAV [PCDHGC5], the protein stability index under setting [1] is 3.94 ± 0.23 and the protein stability index under setting [2] stood at 3.81 ± 0.45.

As for KSKWDEEWDKNKSAFPFSDKLGEL [CLINT1], the protein stability index is, setting by setting: under setting [1], 3.82 ± 0.31; under setting [2], 3.85 ± 0.21.

Regarding AKAAALSTKTPAPCSEFMEPSSDP [SPAG8], the protein stability index is 5.1 ± 0.33 under setting [1] and 5.41 ± 0.19 under setting [2].

On to EPPTEAASREENQAGPEATTSDPQ [PALM], for which the protein stability index reads like this: under setting [1], 5.61 ± 0.26; under setting [2], 5.49 ± 0.3.

For the sequence RGYIKPHVDSIKFCGATIAGLSLL [ALKBH7], the protein stability index runs as follows: under setting [1], 2.52 ± 0.41; under setting [2], 2.39 ± 0.63.

For the sequence LLPEKAFSDIPSPYLRGTIKMMQA [GFOD1], the protein stability index was 2.45 ± 0.23 under setting [1] and 2.81 ± 0.44 under setting [2].

Regarding RFNQVLKNLLHAEFLRVQEERILH [VPS39], the protein stability index under setting [1] worked out at 2.47 ± 0.81 and the protein stability index under setting [2] is 2.46 ± 0.38.

Take TMLSHYRPFYVNKGNGIGSNEAP [TRIM29]: the protein stability index came out at 3.1 ± 0.24 under setting [3] and 3.14 ± 0.25 under setting [4].

Consider IKTTLRELLVYIVFLVDICLLTYG [PKD2L1], for which the protein stability index came to 2.98 ± 0.45 under setting [1] and 2.93 ± 0.53 under setting [2].

Take LDVKSPPEPRSEVVPARLKRASAP [RIPK4]: the protein stability index by setting is: under setting [1], 5.08 ± 0.49; under setting [2], 5.11 ± 0.092.

Consider SRGSSVSMSGGRFRCPTCRHEVIM [TRIM63], for which the protein stability index by setting is: under setting [1], 2.43 ± 0.56; under setting [2], 2.4 ± 0.38.

On to FFIESCGAQVPVEGSRRETSITV, for which the protein stability index runs as follows: under setting [3], 2.56 ± 0.97; under setting [4], 2.29 ± 0.36.

For TQIPADEDTQTDADSSAQAAAQAP [TAF7L], the protein stability index runs as follows: under setting [1], 5.49 ± 0.072; under setting [2], 5.51 ± 0.15.

Turning to VDRNTRPGPQDPEESASRQRFGEA [ELOA2], the protein stability index is 4.92 ± 0.25 under setting [1] and 5.14 ± 0.14 under setting [2].

In the case of PRTRARLGANEVLLVVGGFGSQQS [KLHL12], the protein stability index was found to be 2.17 ± 0.12 under setting [1] and 1.97 ± 0.58 under setting [2].

Turning to LQFDPAPRRGEPHVTRRTPDYFL [PPP2CA], the protein stability index by setting is: under setting [3], 4.16 ± 0.3; under setting [4], 4.18 ± 0.18.

In the case of RGNTYALQTGPLLGRPDSLELQRQ [RSPH3], the protein stability index runs as follows: under setting [1], 3.87 ± 0.15; under setting [2], 3.9 ± 0.26.
